In US20220213169A1 one finds percent inhibition of ADAM8 (cleavage of fluorescence energy transfer substrate PEPDAB064 or PEPDAB013) (% inhibition and IC50 for inhibition of ADAM8 (cleavage of fluorescence energy transfer substrate PEPDAB064 or PEPDAB013) data, which are given here for nine molecules.

Values joined by “and” are separate entries in the source; they are usually repeats but may differ in a detail not shown here. Equal entries are not always repeated.

T1: human ADAM8 (human) (UniProt P78325)
T1 sequence: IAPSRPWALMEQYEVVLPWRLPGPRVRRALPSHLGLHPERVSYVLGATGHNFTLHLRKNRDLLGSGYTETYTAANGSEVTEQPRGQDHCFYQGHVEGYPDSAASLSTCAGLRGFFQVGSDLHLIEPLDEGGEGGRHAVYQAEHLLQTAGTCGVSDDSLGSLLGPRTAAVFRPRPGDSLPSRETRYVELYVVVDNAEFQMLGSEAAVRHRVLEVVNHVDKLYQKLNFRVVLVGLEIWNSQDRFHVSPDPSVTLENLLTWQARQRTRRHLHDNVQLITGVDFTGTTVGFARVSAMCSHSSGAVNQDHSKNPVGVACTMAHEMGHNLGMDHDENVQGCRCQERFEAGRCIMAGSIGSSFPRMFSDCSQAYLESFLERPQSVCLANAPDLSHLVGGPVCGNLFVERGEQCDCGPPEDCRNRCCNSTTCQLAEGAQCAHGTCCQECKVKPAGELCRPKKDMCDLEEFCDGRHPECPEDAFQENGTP

B1: ADAM8 prodomain peptide SEQ ID NO: 4 (peptide, not shown: small tags and cut ends)
chain: MIAPSRPWALMEQYEVVLPRRLPGPRVRAALPSHLGLHPERVSYVLGATGHNFTLHLRKNRDLLGSGYTETYTAANGSEVTEQPRGQDHSFYQGHVEGYPDSAASLSTSAGLRGFFQVGSDLHLIEPLDEGGEGGRHAVYQAEHLLQTAGTSGVSDDSLGSLLGPRTAAVFRPRPGDSLPS
B2: ADAM8 prodomain peptide SEQ ID NO: 17 (peptide, not shown: small tags and cut ends)
chain: MIAPSRPWALMEQYEVVLPWRLPGPKVRKALPSHLGLHPERVSYVLGATGHNFTLHLRKNRDLLGSGYTETYTAANGSEVTEQPRGQDHSFYQGHVEGYPDSAASLSTSAGLRGFFQVGSDLHLIEPLDEGGEGGRHAVYQAEHLLQTAGTSGVSDDSLGSLLGPRTAAVFRPRPGDSLPS
B3: SEQ ID NO: 17 (Pegylated on N-terminus) (peptide, part only; not given: added cysteine residues and His tag, not shown: small tags and cut ends)
chain, part: MIAPSRPWALMEQYEVVLPWRLPGPKVRKALPSHLGLHPERVSYVLGATGHNFTLHLRKNRDLLGSGYTETYTAANGSEVTEQPRGQDHSFYQGHVEGYPDSAASLSTSAGLRGFFQVGSDLHLIEPLDEGGEGGRHAVYQAEHLLQTAGTSGVSDDSLGSLLGPRTAAVFRPRPGDSLPS
modifications: 5 kDa maleimide PEG on an introduced cysteine near the N-terminus
B4: ADAM8 prodomain peptide SEQ ID NO: 15 (peptide, not shown: small tags and cut ends)
chain: MIAPSRPWALMEQYEVVLPRRLPGPRVRGALPSHLGLHPERVSYVLGATGHNFTLHLRKNRDLLGSGYTETYTAANGSEVTEQPRGQDHSFYQGHVEGYPDSAASLSTSAGLRGFFQVGSDLHLIEPLDEGGEGGRHAVYQAEHLLQTAGTSGVSDDSLGSLLGPRTAAVFRPRPGDSLPS
B5: wild type human ADAM8 prodomain peptide SEQ ID NO: 2 (peptide, not shown: small tags and cut ends)
chain: MIAPSRPWALMEQYEVVLPWRLPGPRVRRALPSHLGLHPERVSYVLGATGHNFTLHLRKNRDLLGSGYTETYTAANGSEVTEQPRGQDHCFYQGHVEGYPDSAASLSTCAGLRGFFQVGSDLHLIEPLDEGGEGGRHAVYQAEHLLQTAGTCGVSDDSLGSLLGPRTAAVFRPRPGDSLPS
B6: SEQ ID NO: 15 (pegylated at C-terminus) (peptide, part only; not given: added cysteine residues and His tag, not shown: small tags and cut ends)
chain, part: MIAPSRPWALMEQYEVVLPRRLPGPRVRGALPSHLGLHPERVSYVLGATGHNFTLHLRKNRDLLGSGYTETYTAANGSEVTEQPRGQDHSFYQGHVEGYPDSAASLSTSAGLRGFFQVGSDLHLIEPLDEGGEGGRHAVYQAEHLLQTAGTSGVSDDSLGSLLGPRTAAVFRPRPGDSLPS
modifications: 5 kDa maleimide PEG on an added cysteine near the C-terminus
B7: ADAM8 prodomain peptide SEQ ID NO: 14 (peptide, not shown: small tags and cut ends)
chain: MIAPSRPWALMEQYEVVLPRRLPGPRVRRALPSHLGLHPERVSYVLGATGHNFTLHLRKNRDLLGSGYTETYTAANGSEVTEQPRGQDHCFYQGHVEGYPDSAASLSTCAGLRGFFQVGSDLHLIEPLDEGGEGGRHAVYQAEHLLQTAGTCGVSDDSLGSLLGPRTAAVFRPRPGDSLPS
B8: ADAM8 prodomain peptide SEQ ID NO: 16 (peptide, not shown: small tags and cut ends)
chain: MIAPSRPWALMEQYEVVLPRRLPGPRVRRALPSHLGLHPERVSYVLGATGHNFTLHLRKNRDLLGSGYTETYTAANGSEVTEQPRGQDHCLYQGHVEGYPDSAASLSTCAGLRGFFQVGSDLHLIEPLDEGGEGGRHAVYQAEHLLQTAGTCGVSDDSLGSLLGPRTAAVFRPRPGDSLPS
B9: SEQ ID NO: 14 (pegylated on 3 cysteines) (peptide, not shown: small tags and cut ends)
chain: MIAPSRPWALMEQYEVVLPRRLPGPRVRRALPSHLGLHPERVSYVLGATGHNFTLHLRKNRDLLGSGYTETYTAANGSEVTEQPRGQDHCFYQGHVEGYPDSAASLSTCAGLRGFFQVGSDLHLIEPLDEGGEGGRHAVYQAEHLLQTAGTCGVSDDSLGSLLGPRTAAVFRPRPGDSLPS
modifications: 2 kDa maleimide PEG on all three cysteines (cysteines 105, 124 and 167 of SEQ ID NO: 1 numbering; positions 90, 109 and 152 of SEQ ID NO: 14)

This test deals with T1, human ADAM8 (human). Put plainly: cell-based or functional assay.
Regarding B1, the percent inhibition of ADAM8 (cleavage of fluorescence energy transfer substrate PEPDAB064 or PEPDAB013) (% inhibition at 5 uM) was 40. As for B2, the percent inhibition of ADAM8 (cleavage of fluorescence energy transfer substrate PEPDAB064 or PEPDAB013) (% inhibition at 4.8 uM) was 51. The molecule B3 returned an IC50 for inhibition of ADAM8 (cleavage of fluorescence energy transfer substrate PEPDAB064 or PEPDAB013) of 24 µM. The molecule B4 registered a percent inhibition of ADAM8 (cleavage of fluorescence energy transfer substrate PEPDAB064 or PEPDAB013) (% inhibition at 4.8 uM) of 45. As for B5, the IC50 for inhibition of ADAM8 (cleavage of fluorescence energy transfer substrate PEPDAB064 or PEPDAB013) was 2.8 µM and 2.3 µM. The same measure, in the same setting: with B6 the figure was 1.8 µM and 3 µM; with B7, 1.4 µM and 2.3 µM. Still for that read-out and setting: with B8 the figure was 0.4 µM; with B9, 2.7 µM and 2.3 µM.
